Results as given in paper doi:10.1101/2022.10.14.512051 (bioRxiv, 2022).

Tests used:
[1] = target: CRL4A complex (CUL4A, DDB1, RBX1) (human | , UniProt Q13619 1-759; Q16531 1-1140; P62877 1-108); experiment: fluorescence polarisation
His-DDB1 (recombinant) = His-DDB1 (recombinant) (human, UniProt Q16531 1-1140); experiment: fluorescence polarisation
Sequence of His-DDB1 (recombinant) (Q16531 whole entry): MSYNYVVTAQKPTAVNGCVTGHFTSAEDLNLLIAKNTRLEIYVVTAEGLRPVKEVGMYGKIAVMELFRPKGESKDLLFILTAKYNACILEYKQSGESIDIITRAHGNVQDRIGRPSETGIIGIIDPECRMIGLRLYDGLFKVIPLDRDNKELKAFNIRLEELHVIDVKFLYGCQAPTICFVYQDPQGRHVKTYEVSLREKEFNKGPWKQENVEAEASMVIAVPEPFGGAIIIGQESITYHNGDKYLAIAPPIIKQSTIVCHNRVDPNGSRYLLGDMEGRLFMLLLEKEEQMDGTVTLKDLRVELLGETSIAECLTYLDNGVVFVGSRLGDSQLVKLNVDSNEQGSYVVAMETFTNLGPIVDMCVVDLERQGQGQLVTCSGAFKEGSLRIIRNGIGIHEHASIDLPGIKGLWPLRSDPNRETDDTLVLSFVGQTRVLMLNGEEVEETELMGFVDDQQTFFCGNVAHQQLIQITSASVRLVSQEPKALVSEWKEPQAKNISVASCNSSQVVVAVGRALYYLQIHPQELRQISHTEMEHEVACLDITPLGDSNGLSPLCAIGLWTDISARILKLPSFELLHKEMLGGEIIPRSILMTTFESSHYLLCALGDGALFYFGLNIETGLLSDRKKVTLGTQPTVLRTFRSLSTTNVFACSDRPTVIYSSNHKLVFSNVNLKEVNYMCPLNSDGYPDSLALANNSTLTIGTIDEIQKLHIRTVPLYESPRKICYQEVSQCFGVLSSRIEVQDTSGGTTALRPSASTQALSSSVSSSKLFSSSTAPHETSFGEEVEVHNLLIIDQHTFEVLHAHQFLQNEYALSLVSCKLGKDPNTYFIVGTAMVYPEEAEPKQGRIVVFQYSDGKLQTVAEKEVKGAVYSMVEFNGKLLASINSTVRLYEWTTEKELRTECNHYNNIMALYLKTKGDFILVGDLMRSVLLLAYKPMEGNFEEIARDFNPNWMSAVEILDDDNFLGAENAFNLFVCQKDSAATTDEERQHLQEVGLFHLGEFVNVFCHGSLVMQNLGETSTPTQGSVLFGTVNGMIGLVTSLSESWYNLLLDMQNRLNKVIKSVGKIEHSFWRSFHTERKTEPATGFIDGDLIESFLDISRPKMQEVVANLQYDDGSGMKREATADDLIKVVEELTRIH

Sequence of CRL4A complex (CUL4A, DDB1, RBX1) (Q13619 whole entry, chain 1 of 3): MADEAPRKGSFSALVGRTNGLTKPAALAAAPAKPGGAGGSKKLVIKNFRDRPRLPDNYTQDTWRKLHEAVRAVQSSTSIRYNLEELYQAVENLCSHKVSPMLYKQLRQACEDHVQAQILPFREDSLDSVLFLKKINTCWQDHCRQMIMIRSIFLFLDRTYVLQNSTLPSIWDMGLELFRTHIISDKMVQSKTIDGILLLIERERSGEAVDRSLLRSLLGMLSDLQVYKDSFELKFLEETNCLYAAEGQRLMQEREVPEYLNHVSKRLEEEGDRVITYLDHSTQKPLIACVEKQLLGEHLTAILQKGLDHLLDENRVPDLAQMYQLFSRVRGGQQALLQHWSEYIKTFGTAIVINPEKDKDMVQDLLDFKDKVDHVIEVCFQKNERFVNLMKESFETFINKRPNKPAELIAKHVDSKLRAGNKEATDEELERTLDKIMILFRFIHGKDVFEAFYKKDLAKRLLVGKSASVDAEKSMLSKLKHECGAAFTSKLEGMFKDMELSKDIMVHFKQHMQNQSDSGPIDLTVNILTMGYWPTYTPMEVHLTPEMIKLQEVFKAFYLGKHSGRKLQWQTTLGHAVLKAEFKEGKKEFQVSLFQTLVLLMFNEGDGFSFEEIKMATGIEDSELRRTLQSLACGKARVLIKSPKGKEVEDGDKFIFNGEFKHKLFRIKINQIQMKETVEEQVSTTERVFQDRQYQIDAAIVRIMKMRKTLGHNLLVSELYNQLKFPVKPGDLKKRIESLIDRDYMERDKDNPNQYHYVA
Sequence of CRL4A complex (CUL4A, DDB1, RBX1) (Q16531 whole entry, chain 2 of 3): as the sequence (Q16531 whole entry) above
Sequence of CRL4A complex (CUL4A, DDB1, RBX1) (P62877 whole entry, chain 3 of 3): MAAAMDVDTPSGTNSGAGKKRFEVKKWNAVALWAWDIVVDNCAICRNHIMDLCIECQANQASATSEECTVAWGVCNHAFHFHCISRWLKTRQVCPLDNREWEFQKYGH

Kd [1]	Kd (His-DDB1 (recombinant))	Binder
~13 µM	~5 µM	Alexa-labeled LIS1 (biotinylated StrepII-Avi-LIS1 with Alexa488-coupled streptavidin) (natural protein, human, UniProt P43034 1-410, looked up, biotin on the Avi tag) MVLSQRQRDELNRAIADYLRSNGYEEAYSVFKKEAELDVNEELDKKYAGLLEKKWTSVIRLQKKVMELESKLNEAKEEFTSGGPLGQKRDPKEWIPRPPEKYALSGHRSPVTRVIFHPVFSVMVSASEDATIKVWDYETGDFERTLKGHTDSVQDISFDHSGKLLASCSADMTIKLWDFQGFECIRTMHGHDHNVSSVAIMPNGDHIVSASRDKTIKMWEVQTGYCVKTFTGHREWVRMVRPNQDGTLIASCSNDQTVRVWVVATKECKAELREHEHVVECISWAPESSYSSISEATGSETKKSGKPGPFLLSGSRDKTIKMWDVSTGMCLMTLVGHDNWVRGVLFHSGGKFILSCADDKTLRVWDYKNKRCMKTLNAHEHFVTSLDFHKTAPYVVTGSVDQTVKVWECR
~13 µM	~5 µM	Alexa-labeled WDR1 (biotinylated StrepII-Avi-WDR1 with Alexa488-coupled streptavidin) (natural protein, human, UniProt O75083 1-606, looked up, biotin on the Avi tag) MPYEIKKVFASLPQVERGVSKIIGGDPKGNNFLYTNGKCVILRNIDNPALADIYTEHAHQVVVAKYAPSGFYIASGDVSGKLRIWDTTQKEHLLKYEYQPFAGKIKDIAWTEDSKRIAVVGEGREKFGAVFLWDSGSSVGEITGHNKVINSVDIKQSRPYRLATGSDDNCAAFFEGPPFKFKFTIGDHSRFVNCVRFSPDGNRFATASADGQIYIYDGKTGEKVCALGGSKAHDGGIYAISWSPDSTHLLSASGDKTSKIWDVSVNSVVSTFPMGSTVLDQQLGCLWQKDHLLSVSLSGYINYLDRNNPSKPLHVIKGHSKSIQCLTVHKNGGKSYIYSGSHDGHINYWDSETGENDSFAGKGHTNQVSRMTVDESGQLISCSMDDTVRYTSLMLRDYSGQGVVKLDVQPKCVAVGPGGYAVVVCIGQIVLLKDQRKCFSIDNPGYEPEVVAVHPGGDTVAIGGVDGNVRLYSILGTTLKDEGKLLEAKGPVTDVAYSHDGAFLAVCDASKVVTVFSVADGYSENNVFYGHHAKIVCLAWSPDNEHFASGGMDMMVYVWTLSDPETRVKIQDAHRLHHVSSLAWLDEHTLVTTSHDASVKEWTITY
